Laboratory results from patent US20190300605A1 (Pfizer, published 2019).

T1: recombinant mouse MAdCAM (mouse, UniProt Q61826 22-365)
T1 sequence (looked up): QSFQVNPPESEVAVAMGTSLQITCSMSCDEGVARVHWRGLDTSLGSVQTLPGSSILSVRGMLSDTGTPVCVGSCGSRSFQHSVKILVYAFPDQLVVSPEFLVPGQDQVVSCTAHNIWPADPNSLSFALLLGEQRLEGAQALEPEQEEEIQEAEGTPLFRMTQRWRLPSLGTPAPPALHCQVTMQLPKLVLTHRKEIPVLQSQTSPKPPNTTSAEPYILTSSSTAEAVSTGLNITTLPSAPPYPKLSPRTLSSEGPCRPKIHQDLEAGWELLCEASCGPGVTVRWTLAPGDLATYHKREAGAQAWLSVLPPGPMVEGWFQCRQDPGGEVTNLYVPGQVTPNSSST

T2: human MAdCAM (full length) (human, UniProt Q13477 19-382)
T2 sequence (looked up): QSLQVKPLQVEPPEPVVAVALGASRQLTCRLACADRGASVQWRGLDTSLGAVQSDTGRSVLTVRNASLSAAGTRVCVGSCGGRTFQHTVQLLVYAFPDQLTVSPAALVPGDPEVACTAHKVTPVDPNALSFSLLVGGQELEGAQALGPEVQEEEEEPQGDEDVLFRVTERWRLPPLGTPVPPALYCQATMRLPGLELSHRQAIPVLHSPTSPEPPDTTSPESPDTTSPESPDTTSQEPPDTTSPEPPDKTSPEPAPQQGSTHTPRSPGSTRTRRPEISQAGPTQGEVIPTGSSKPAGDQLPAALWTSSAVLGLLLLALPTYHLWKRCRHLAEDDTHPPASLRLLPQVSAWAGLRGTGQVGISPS

T3: chimeric cynomolgus/human MAdCAM (cynomolgus; human, UniProt Q13477 226-382, limits assumed)
T3 sequence: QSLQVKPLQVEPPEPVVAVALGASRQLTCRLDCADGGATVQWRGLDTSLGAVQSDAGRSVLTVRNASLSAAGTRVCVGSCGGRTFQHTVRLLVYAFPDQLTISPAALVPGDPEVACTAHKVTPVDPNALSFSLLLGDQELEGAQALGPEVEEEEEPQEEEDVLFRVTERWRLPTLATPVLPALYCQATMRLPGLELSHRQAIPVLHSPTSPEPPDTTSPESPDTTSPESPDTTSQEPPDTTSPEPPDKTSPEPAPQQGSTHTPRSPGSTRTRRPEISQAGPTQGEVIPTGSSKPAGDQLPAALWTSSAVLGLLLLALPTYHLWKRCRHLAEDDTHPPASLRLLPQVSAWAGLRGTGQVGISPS


Key:
recombinant mouse MAdCAM = target: T1, recombinant mouse MAdCAM; assay: ELISA
[1] = target: MAdCAM-IgG1 Fc fusion protein (human); assay: cell-based or functional assay
[2] = target: T2, human MAdCAM (full length); assay: cell-based or functional assay
[3] = target: T3, chimeric cynomolgus/human MAdCAM; assay: cell-based or functional assay
[4] = target: MAdCAM-IgG1 Fc fusion protein (human); assay: cell-based or functional assay; remark: listed apart in the source
[5] = target: T4, MAdCAM-IgG1 Fc fusion protein (human); assay: SPR BIAcore protocol 1: mAb captured, MAdCAM-IgG1 Fc injected
T4 construct: Made in CHO-DHFR cells; also called MAdCAM-IgFc
Description: To perform kinetic analyses, a high density mouse anti-human (IgG₂ and IgG₄) antibody surface over a CMS BIAcore sensor chip was prepared using routine amine coupling. Hybridoma supernatants were diluted 10, 5, 2-fold in HBS-P (10 mM HEPES pH 7.4, 150 mM NaCl, 0.005% Surfactant P20) running buffer containing 100 μg/mL BSA and 10 mg/mL carboxymethyldextran or used neat. Each mAb was captured onto a separate surface using a […] contact time and a 5 mM wash for stabilization of the mAb baseline. MAdCAM-IgG₁ Fc (141 nM) fusion protein was then injected at over all surfaces for one minute, followed by a 3 mM dissociation. The data were normalized for the amount of antibody captured on each surface and evaluated with global fit Langmuir 1:1, using baseline drift models available on the BIAevaluation software provided by BIAcore.

[6] = target: T4, MAdCAM-IgG1 Fc fusion protein; assay: SPR BIAcore protocol 2: mAb amine-coupled, MAdCAM-IgG1 Fc injected
Description: Affinity-purified mAb were immobilized onto the dextran layer of a CMS biosensor chip using amine coupling. […] Samples of MAdCAM-IgG₁ Fc fusion protein in running buffer were prepared at concentrations ranging from 0.2-55 nM (a 0 nM solution comprising running buffer alone was included as a zero reference). Samples were randomized and injected in duplicate for 3 mM each across 4 flow cells using HBS-EP (10 mM HEPES pH 7.4, 150 mM NaCl, 3 mM EDTA, 0.005% Surfactant P20) as running buffer. A flow rate of 100 μL/min was used to minimize mass transport limitations. Dissociation of MAdCAM-IgG₁ Fc fusion protein was monitored for 180 mins, the surface regenerated by a 6 sec injection of 25 mM H₃PO₄ (50 μL/min), or 10 mM (6.22.2), 20 mM (6.67.1, 6.73.2, 6.77.1) to 25 mM (6.34.2) and 45 mM NaOH (6.14.2) and the data analysed using the BIAevaluation (v3.1) software package.

Binder | binding result (recombinant mouse MAdCAM) | Mean IC50, JY cell adhesion to MAdCAM IgG1 Fc fusion [1] | Mean IC50, JY cell adhesion, MAdCAM FlpIn CHO Assay [2] | Functional IC50, cynomolgus/human MAdCAM-CHO/JY adhesion assay [3] | MAdCAM IgG1 Fc fusion Assay Mean IC50 (Parent) [4] | Kd [5] | koff [5] | kon [5] | Kd [6] | koff [6] | kon [6]
anti-MAdCAM monoclonal antibody 6.22.2 (antibody, human IgG4, kappa, V domains shown, human IgG4 kappa from hybridoma 6.22.2) VH: QVQLVESGGGVVQPGRSLRLSCAASGHTFSSDGMHWVRQAPGKGLEWVAIIWYDGSNKYYADSVKGRFTISRDNSKNTLYLQMNSLRAEDTAVYYCARDPGYYYGMDVWGQGTTVTVSS VL: EIVLTQSPDFQSVTPKEKVTITCRASQRIGSSLHWYQQKPDQSPKLLIKYASQSFSGVPSRFSGSGSGTNFTLTINGLEAEDAATYYCHQSGRLPLTFGGGTKVEIKR | no binding | 0.018 µg/mL | 0.573 µg/mL | 0.83 µg/mL | 0.018 µg/mL | 0.0093 nM | 1.4e-05 s⁻¹ | 1.5e+06 M⁻¹ s⁻¹ | 0.0038 nM | 8.7e-07 s⁻¹ | 230000 M⁻¹ s⁻¹
anti-MAdCAM monoclonal antibody 6.34.2 (antibody, human IgG4, kappa, V domains shown, human IgG4 kappa from hybridoma 6.34.2) VH: QVQLVESGGGVVQPGRSLRLSCAASGFTFSSYGMHWVRQAPGKGLEWVAVISNDGNNKYYADSVKGRFTISRDNSKNTLYLQMNSLSAEDTAVYYCARDSTAITYYYYGMDVWGQGTTVTVSS VL: DIQMTQSPSSLSASVGDRVTITCRASQNISSYLNWFQQKPGKAPKLLIYAASGLKRGVPSRFSGSGSGTDFTLTIRTLQPDDFATYSCHQSYSLPFTFGPGTKVDIKR | no binding | 0.013 µg/mL | 0.285 µg/mL | 0.47 µg/mL | 0.013 µg/mL | 0.0158 nM | 1.9e-05 s⁻¹ | 1.2e+06 M⁻¹ s⁻¹ | < 0.015 nM | < 5e-06 s⁻¹ | 330000 M⁻¹ s⁻¹

Second part, the binder after the results:

binding result (recombinant mouse MAdCAM) | Mean IC50, JY cell adhesion to MAdCAM IgG1 Fc fusion [1] | Mean IC50, JY cell adhesion, MAdCAM FlpIn CHO Assay [2] | Functional IC50, cynomolgus/human MAdCAM-CHO/JY adhesion assay [3] | MAdCAM IgG1 Fc fusion Assay Mean IC50 (Parent) [4] | Kd [5] | koff [5] | kon [5] | Kd [6] | koff [6] | kon [6] | Binder
no binding | 0.013 µg/mL | 0.298 µg/mL | 0.75 µg/mL | 0.013 µg/mL | ≤ 0.017 nM | ≤ 1e-05 s⁻¹ | 590000 M⁻¹ s⁻¹ | < 0.02 nM | < 5e-06 s⁻¹ | 240000 M⁻¹ s⁻¹ | anti-MAdCAM monoclonal antibody 6.67.1 (antibody, human IgG4, kappa, V domains shown, human IgG4 kappa from hybridoma 6.67.1) VH: QVQLQESGPGLVKPSETLSLTCTVSGDSISSNYWSWIRQPAGKGLEWIGRIYTSGGTNSNPSLRGRVTILADTSKNQFSLKLSSVTAADTAVYYCARDRITIIRGLIPSFFDYWGQGTLVTVSS VL: not shown
no binding | 0.021 µg/mL | 0.574 µg/mL | 0.96 µg/mL | 0.021 µg/mL | 0.271 nM | 0.00026 s⁻¹ | 960000 M⁻¹ s⁻¹ | 0.08 nM | 1.2e-05 s⁻¹ | 150000 M⁻¹ s⁻¹ | anti-MAdCAM monoclonal antibody 7.26.4 (antibody, human IgG2, kappa, V domains shown, human IgG2 kappa from hybridoma 7.26.4) VH: QVQLVQSGAEVKKPGASVKVSCEASGYTFTSYGIDWVRQAPGQGLEWMGWISVYSGNTNYAQKLQGRVTMSTDTSTSTAYMELRSLRSDDTAVYYCAREGSSSSGDYYYGMDVWGQGTTVTVSS VL: DIVMTQTPLSLSVTPGQPASISCKSNQSLLYSDGKTYLFWYLQKPGQPPQLLIYEVSNRFSGVPDRFSGSGSGTDFTLKISRVEAEDVGVYYCMQSIQLPWTFGQGTKVEIKR
